Test results: paper PMC7858651, “Modulation of Increased mGluR1 Signaling by RGS8 Protects Purkinje Cells From Dendritic Reduction and Could Be a Common Mechanism in Diverse Forms of Spinocerebellar Ataxia” (Frontiers in Cell and Developmental Biology, 2020)

Experiments:
wild-type PKCγ-tGFP = biological target: T1, wild-type PKCγ-tGFP (UniProt P05129 1-697); experiment: co-IP; HEK293T cells expressing mGluR1, transfected with PKCγ-tGFP, PKCγ(S361G)-tGFP or tGFP alone; tGFP trap agarose beads (Chromotek); IPs blotted with anti-mGluR1 and anti-tGFP; amounts quantified and normalised to wild-type PKCγ-tGFP; settings: partners not purified
T1 construct: Protein Kinase C gamma (PKCγ), wild type; plasmid pCMV-PKCγ-tGFP, a gift (Shimobayashi and Kapfhammer, 2017); also called WT PKCγ; source: HEK293T, transfected (pCMV-PKCγ-tGFP), in lysate

PKCγ(S361G)-tGFP = biological target: T2, PKCγ(S361G)-tGFP (human, UniProt P05129 1-697, S361G); experiment: as above; settings: partners not purified
T2 construct: Protein Kinase C gamma (PKCγ) with the SCA14-associated human mutation S361G; plasmid pCMV-PKCγ(S361G)-tGFP, a gift (Shimobayashi and Kapfhammer, 2017); also called mutated PKCγ(S361G); mutant PKCγ(S361G); source: HEK293T, transfected (pCMV-PKCγ(S361G)-tGFP), in lysate

B1: metabotropic glutamate receptor 1 (mGluR1) (receptor, UniProt P97772 21-1199, looked up)
chain: RMPDRKVLLAGASSQRSVARMDGDVIIGALFSVHHQPPAEKVPERKCGEIREQYGIQRVEAMFHTLDKINADPVLLPNITLGSEIRDSCWHSSVALEQSIEFIRDSLISIRDEKDGLNRCLPDGQTLPPGRTKKPIAGVIGPGSSSVAIQVQNLLQLFDIPQIAYSATSIDLSDKTLYKYFLRVVPSDTLQARAMLDIVKRYNWTYVSAVHTEGNYGESGMDAFKELAAQEGLCIAHSDKIYSNAGEKSFDRLLRKLRERLPKARVVVCFCEGMTVRGLLSAMRRLGVVGEFSLIGSDGWADRDEVIEGYEVEANGGITIKLQSPEVRSFDDYFLKLRLDTNTRNPWFPEFWQHRFQCRLPGHLLENPNFKKVCTGNESLEENYVQDSKMGFVINAIYAMAHGLQNMHHALCPGYVGLCDAMKPIDGRKLLDFLIKSSFVGVSGEEVWFDEKGDAPGRYDIMNLQYTEANRYDYVHVGTWHEGVLNIDDYKIQMNKSGMVRSVCSEPCLKGQIKVIRKGEVSCCWICTACKENEFVQDEFTCRACDLGWWPNAELTGCEPITIRYLEWSDIESIIAIAFSCLGILVTLFVTLIFVLYRDTPVVKSSSRELCYIILAGIFLGYVCPFTLIAKPTTTSCYLQRLLVGLSSAMCYSALVTKTNRIARILAGSKKKICTRKPRFMSAWAQVIIASILISVQLTLVVTLIIMEPPMPILSYPSIKEVYLICNTSNLGVVAPVGYNGLLIMSCTYYAFKTRNVPANFNEAKYIAFTMYTTCIIWLAFVPIYFGSNYKIITTCFAVSLSVTVALGCMFTPKMYIIIAKPERNVRSAFTTSDVVRMHVGDGKLPCRSNTFLNIFRRKKPGAGNANSNGKSVSWSEPGGRQAPKGQHVWQRLSVHVKTNETACNQTAVIKPLTKSYQGSGKSLTFSDASTKTLYNVEEEDNTPSTHFSPPSSPSMVVHRRGPPVATTPPLPPHLSAEETPLFLADSVIPKGLPPPLPQQQQQPPPQPPPQQPKSLMDQLQGVVTNFGSGIPDFHAVLAGPGTPGNGLRSLYPPPPPPQHLQMLPLQLSTFREEPISPPGEDDDDDSSERFKLLQEFVYEREGNTEEDDLEEEEDLPAASKLTPEDSPALTPPSPFRDSVASGSSVPSSPVSESVLCTPPNVTYASVILRDYKQSSSTL
notes: metabotropic glutamate receptor 1 (mGluR1), expressed from the vector pCMV-mGluR1 bought from Origene; source: HEK293T, transfected (pCMV-mGluR1, Origene), in lysate
- relative amount bound, normalised to wild-type PKCγ-tGFP (wild-type PKCγ-tGFP): 1 relative to wild-type PKCγ-tGFP
- relative amount bound, normalised to wild-type PKCγ-tGFP (PKCγ(S361G)-tGFP): 1.26 relative to wild-type PKCγ-tGFP
